Molecular target: T1, hnRNP-Q2 (SYNCRIP, hnRNP-Q isoform 2) (mouse (cDNA from Krebs-2 cells), UniProt Q7TMK9-2 1-562)
T1 sequence: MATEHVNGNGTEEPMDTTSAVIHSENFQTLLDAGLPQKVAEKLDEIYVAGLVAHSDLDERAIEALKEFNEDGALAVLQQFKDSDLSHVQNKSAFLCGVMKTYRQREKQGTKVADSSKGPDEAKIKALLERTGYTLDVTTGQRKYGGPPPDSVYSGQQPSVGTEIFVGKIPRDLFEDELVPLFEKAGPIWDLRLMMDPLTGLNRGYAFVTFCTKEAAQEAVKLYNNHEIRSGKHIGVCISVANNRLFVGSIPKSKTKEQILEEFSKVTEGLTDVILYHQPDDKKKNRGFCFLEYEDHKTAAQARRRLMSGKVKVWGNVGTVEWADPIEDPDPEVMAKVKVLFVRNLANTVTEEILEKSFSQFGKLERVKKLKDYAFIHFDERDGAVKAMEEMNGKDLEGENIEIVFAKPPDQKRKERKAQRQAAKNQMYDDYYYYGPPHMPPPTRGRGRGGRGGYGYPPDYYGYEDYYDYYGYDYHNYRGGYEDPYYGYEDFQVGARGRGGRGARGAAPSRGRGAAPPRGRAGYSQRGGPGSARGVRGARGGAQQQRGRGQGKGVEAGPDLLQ
Assay: EMSA; apparent Kd, 2 mM Mg2+; three experiments; EMSA: 20 mM HEPES-KOH pH 7.3, ~100 mM KCl, 2 mM MgCl2, 1 mM DTT, 0.05% NP40, 5% glycerol, 0.1 mg/ml acetylated BSA (plus 2 ul protein in buffer A), 30 C 30 min, gel at 4 C; UV crosslinking in nuclease-treated RRL
Conditions: protein: recombinant; tags: C-terminal His6 (pET28a); label: 5' 32P; single strand

B1: oligo(A)30 (ssRNA)
RNA: AAAAAAAAAAAAAAAAAAAAAAAAAAAAAA
B1 was tested, and the Kd was ~30 nM.

— publication PMC3660254, “Control of Translation and miRNA-Dependent Repression by a Novel Poly(A) Binding Protein, hnRNP-Q”
